This is an account of results in PMC10767740, “Recombinant Full-Length TDP-43 Oligomers Retain Their Ability to Bind RNAs, Are Not Toxic, and Do Not Seed TDP-43 Aggregation in Vitro” (ACS Chemical Neuroscience, 2023).

The data set concerns the molecule itself. As to the kind of experiment: ThT aggregation kinetics + TEM; 5 μM core peptide, 20 μM ThT, with or without 2.5% fibrillar seeds of the same peptide; 25 °C, 40 h, shaken 5 s at 100 rpm before each reading; TEM at the end.

B1: TDP-43 core peptide 279–360 (peptide, UniProt Q13148 279-360, looked up)
chain: NPGGFGNQGGFGNSRGGGAGLGNNQGSNMGGGMNFGAFSINPAMMAAAQAALQSSWGMMGMLASQQNQSGPSGNNQNQGNMQ
notes: also called amyloid core peptide; source: lyophilized, disaggregated in HFIP/TFA
On to B1, for which the binding result is reported as “binds”.
